The record followed here is patent US9457043B2, “Combination therapy using c-Met inhibitor and c-Myc inhibitor” (Samsung Electronics Co., Ltd., priority 2013, dated 2016).

Experiment [1] deals with c-Met (Homo sapiens, UniProt P08581). Put plainly: Specificity of expressed scFv to c-Met. It is filed as binding. As to conditions: scFv product after expression. An excerpt: For use in constructing an scFv of the huAbF46 antibody from the heavy and light chain variable regions of the huAbF46 antibody, a gene was designed to have the structure of “VH-linker-VL” for each of the heavy and the light chain variable region, with the linker including the amino acid sequence “[…]” (SEQ ID NO: 54). A polynucleotide sequence (SEQ ID NO: 55) coding for the designed scFv of huAbF46 was synthesized in Bioneer and an expression vector for the polynucleotide had the nucleotide sequence of SEQ ID NO: 56.
Sequence of c-Met (P08581 25-1390): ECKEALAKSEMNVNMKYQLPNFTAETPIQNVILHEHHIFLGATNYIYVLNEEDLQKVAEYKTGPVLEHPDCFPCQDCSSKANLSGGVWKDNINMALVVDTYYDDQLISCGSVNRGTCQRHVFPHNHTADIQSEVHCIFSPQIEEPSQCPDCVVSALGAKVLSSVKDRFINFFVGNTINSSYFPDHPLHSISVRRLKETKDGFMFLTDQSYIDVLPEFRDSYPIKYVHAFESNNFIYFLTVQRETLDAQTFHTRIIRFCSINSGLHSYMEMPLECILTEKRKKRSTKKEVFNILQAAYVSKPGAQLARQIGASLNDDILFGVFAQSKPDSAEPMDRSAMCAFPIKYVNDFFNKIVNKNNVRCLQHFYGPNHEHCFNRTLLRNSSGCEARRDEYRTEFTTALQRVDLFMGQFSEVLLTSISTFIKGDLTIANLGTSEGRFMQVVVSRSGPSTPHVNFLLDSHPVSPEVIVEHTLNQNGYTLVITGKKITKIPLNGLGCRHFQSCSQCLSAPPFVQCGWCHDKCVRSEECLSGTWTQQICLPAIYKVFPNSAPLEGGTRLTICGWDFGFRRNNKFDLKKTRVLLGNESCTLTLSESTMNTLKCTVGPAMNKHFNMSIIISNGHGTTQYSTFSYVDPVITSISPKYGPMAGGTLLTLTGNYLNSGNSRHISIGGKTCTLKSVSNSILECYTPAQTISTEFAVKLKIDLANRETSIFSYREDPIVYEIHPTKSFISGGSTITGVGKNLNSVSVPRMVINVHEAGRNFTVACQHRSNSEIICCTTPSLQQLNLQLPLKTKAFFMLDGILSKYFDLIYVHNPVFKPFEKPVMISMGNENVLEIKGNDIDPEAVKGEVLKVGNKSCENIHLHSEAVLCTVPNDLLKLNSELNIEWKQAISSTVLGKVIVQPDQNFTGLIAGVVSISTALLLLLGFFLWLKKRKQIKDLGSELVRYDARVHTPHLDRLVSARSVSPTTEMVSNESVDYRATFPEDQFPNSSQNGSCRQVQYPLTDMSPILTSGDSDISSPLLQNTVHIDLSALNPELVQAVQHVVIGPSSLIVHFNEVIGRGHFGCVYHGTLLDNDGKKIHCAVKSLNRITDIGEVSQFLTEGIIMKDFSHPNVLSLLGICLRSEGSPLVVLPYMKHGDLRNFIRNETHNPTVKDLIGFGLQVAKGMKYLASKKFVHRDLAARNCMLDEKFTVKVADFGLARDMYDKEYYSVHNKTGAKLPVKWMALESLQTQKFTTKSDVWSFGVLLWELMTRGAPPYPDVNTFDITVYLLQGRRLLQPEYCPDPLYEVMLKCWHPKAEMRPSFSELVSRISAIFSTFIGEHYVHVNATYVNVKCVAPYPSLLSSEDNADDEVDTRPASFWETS

In experiment [2] the test system is Ls174T cells. Kind of experiment: Cell proliferation (CellTiter Glo) in Ls174T colon cancer cells. It is filed as cell-based. As to conditions: L3-1Y/IgG2 0-2 μg/ml, 72 hours, FIG. 3. An excerpt:
(§1) To confirm the effect of co-administration in a colon cancer cell on which an anti-c-Met antibody has no effect when administered alone, HT-29 (ATCC, HTB-38), Ls174T (ATCC, CCL-188), SW620 (ATCC, CCL-227), and LoVo (ATCC, CCL-229) cells were used for assaying the effect of co-administration on cell proliferation.
(§2) In particular, a mixture of c-Myc siRNAs (sic-Myc; mixture of siRNA pools wherein 5′-[…]-3′ (SEQ ID NO: 119), 5′-[…]-3′ (SEQ ID NO: 120), 5′-[…]-3′ (SEQ ID NO: 121), and 5′-[…]-3′ (SEQ ID NO: 122) are mixed at the molar ratio of 1:1:1:1) was reverse transfected to each of HT-29, Ls174T, SW620, and LoVo cells and each transfected cells were incubated in 96-well plate at the amount of 5000 cells/well (medium: 10% FBS in RPMI 1640 (GIBCO), incubation temperature: 37° C.). The reverse transfection was conducted using lipofectamine RNAi max (invitrogen). The reverse transfection was conducted by pre-incubating 10˜20 uM of siRNA diluted in opti-MEM (Gibco) and lipofectamine RNAi max diluted in opti-MEM (Gibco) at room temperature for 15 minutes, and then mixing with 5000 cells/well of the incubated cells, to allow reverse transfection. 24 hours after, the prepared cells were treated with L3-1Y/IgG2. […] The number of the cells was counted through luminescence signal, and the luminescence signal was recorded using Envision 2104 Multi-label Reader (Perkin Elmer). […]

Experiment [3] deals with LoVo cells. Put plainly: Cell proliferation (CellTiter Glo) in LoVo colon cancer cells. In kind it is cell-based. As to conditions: L3-1Y/IgG2 0-2 μg/ml, 72 hours, FIG. 5.
Source text: as §1, §2

Experiment [4] concerns HT-29 cells. Put plainly: Cell proliferation (CellTiter Glo) in HT-29 colon cancer cells. It is filed as cell-based. As to conditions: L3-1Y/IgG2 0-2 μg/ml, 72 hours, FIG. 2.
Source text: as §1, §2

Experiment [5] has as its system SW620 cells. Put plainly: Cell proliferation (CellTiter Glo) in SW620 colon cancer cells. As to conditions: L3-1Y/IgG2 0-2 μg/ml, 72 hours, FIG. 4. It is filed as cell-based.
Source text: as §1, §2

Experiment [6] relates to c-Myc. Put plainly: c-Myc expression level by western blotting in HT-29 cells. The note with it: 1 μg/ml L3-1Y/IgG2 for 24 hours, western blot, beta-actin control, FIG. 7. In kind it is cell-based. The procedure:
To reveal the causes of acquirement of effect by co-treatment of an anti-c-Met antibody and c-Myc siRNA on colon cancer cell on which the antibody solely has no effect, the expression level of c-Myc in HT29 (ATCC, HTB-38) treated with an anti-c-Met antibody was measured.
In particular, 20000 cells of HT-29 cell was incubated in 60 mm plate (medium: 10% FBS in RPMI 1640 (GIBCO), incubation temperature: 37° C.). 24 hours after, 1 μg/ml of L3-1Y/IgG2 was treated thereto. 24 hours after, the cells were lysed using Lysis buffer (Roche), thereby obtaining proteins. The concentration of the obtained proteins was measured, and 20 ug of each protein was loaded and subjected to western blotting. The expression amount of c-Myc was detected using c-Myc antibody (Santa-Cruz). A group which is not treated with L3-1Y/IgG2 was used as a control, and the expression amount of beta-actin was used as a control of expression amount of proteins.
(A western blot detects proteins with antibodies after separation by electrophoresis.)

In experiment [7] the test system is HCC1954 cells. Kind of experiment: Cell proliferation (CellTiter Glo) in HCC1954 breast cancer cells. It is filed as cell-based. The note with it: L3-1Y/IgG2 0-2 μg/ml, 72 hours after antibody treatment, siRNA reverse transfected 24 hours before, FIG. 1.
Source text: To confirm the effect of co-administration in a breast cancer cell on which an anti-c-Met antibody has no effect when administered alone, HCC1954 (ATCC, CRL 2338) cells were used for assaying the effect of co-administration on cell proliferation.
as §2, with “HCC1954” for “each of HT-29, Ls174T, SW620, and LoVo”, “the” for “each”

B1: scFv of huAbF46: VH-linker-VL single-chain Fv of huAbF46 with linker SEQ ID NO: 54 (protein)
scFv: EVQLVESGGGLVQPGGSLRLSCAASGFTFTDYYMSWVRQAPGKGLEWLGFIRNKANGYTTEYSASVKGRFTISRDNSKNTLYLQMNSLRAEDTAVYYCARDNWFAYWGQGTLVTVSSGLGGLGGGGSGGGGSGGSSGVGSDIQMTQSPSSLSASVGDRVTITCKSSQSLLASGNQNNYLAWHQQKPGKAPKMLIIWASTRVSGVPSRFSGSGSGTDFTLTISSLQPEDFATYYCQQSYSAPLTFGQGTKVEIKR
In the case of B1, the “specificity to c-Met” value in experiment [1] is given as “exhibit specificity to c-Met”.

B2: L3-1Y/IgG2: anti-c-Met antibody: huAbF46-H4-A1 heavy chain variable region, human IgG2 hinge and constant region, kappa light chain with tyrosine at position 36 (antibody)
heavy: EVQLVESGGGLVQPGGSLRLSCAASGFTFTDYYMSWVRQAPGKGLEWLGFIRNKANGYTTEYSASVKGRFTISRDNSKNTLYLQMNSLRAEDTAVYYCARDNWFAYWGQGTLVTVSSASTKGPSVFPLAPCSRSTSESTAALGCLVKDYFPEPVTVSWNSGALTSGVHTFPAVLQSSGLYSLSSVVTVPSSNFGTQTYTCNVDHKPSNTKVDKTVERKCCVECPPCPAPPVAGPSVFLFPPKPKDTLMISRTPEVTCVVVDVSHEDPEVQFNWYVDGVEVHNAKTKPREEQFNSTFRVVSVLTVVHQDWLNGKEYKCKVSNKGLPAPIEKTISKTKGQPREPQVYTLPPSREEMTKNQVSLTCLVKGFYPSDIAVEWESNGQPENNYKTTPPMLDSDGSFFLYSKLTVDKSRWQQGNVFSCSVMHEALHNHYTQKSLSLSPGK
light: DIQMTQSPSSLSASVGDRVTITCKSSQSLLASGNQNNYLAWYQQKPGKAPKMLIIWASTRVSGVPSRFSGSGSGTDFTLTISSLQPEDFATYYCQQSYSRPYTFGQGTKVEIKRTVAAPSVFIFPPSDEQLKSGTASVVCLLNNFYPREAKVQWKVDNALQSGNSQESVTEQDSKDSTYSLSSTLTLSKADYEKHKVYACEVTHQGLSSPVTKSFNRGEC
In the case of B2, the “cell proliferation inhibition effect” value in experiment [2], in experiment [3], in experiment [4], in experiment [5] and in experiment [7] was “no cell proliferation inhibition effect is observed” in each case. Also, in experiment [6], the “amount of c-Myc (expression)” value was “increased amount of c-Myc”.
